# B1: β-casein: bovine β-casein self-assembled into unloaded micelles in acidic or neutral buffer (protein, UniProt P02666 16-224, looked up)
# Beta-casein: RELEELNVPGEIVESLSSSEESITRINKKIEKFQSEEQQQTEDELQDKIHPFAQTQSLVYPFPGPIPNSLPQNIPPLTQTPVVVPPFLQPEVMGVSKVKEAMAPKHKEMPFPKYPVEPFTESQSLTLTDVENLHLPLPLLQSWMHQPHQPLPPTVMFPPQSVLSLSQSKVLPVPQKAVPYPQRDMPIQAFLLYQEPVLGPVRGPFPIIV
# modifications: self-assembled micelles
# notes: bovine β-casein self-assembled into unloaded micelles in acidic or neutral buffer
# Columns and labels:
# Format in all cases: physicochemical
# [1] = Wide-angle X-ray diffraction (XRD); conditions: powder / lyophilized specimen, 1:8 mole ratio where loaded
# Description: The operating conditions were CuKα radiation (0.154 nm), voltage 40 kV and current 40 mA, in 20 recording range from 3° to 65°, at room temperature.
# [2] = Small angle X-ray scattering (SAXS) of micelles; conditions: 1 wt % β-casein, empty or loaded 1:8 protein:celecoxib, pH ~7
# Cryo-TEM of micelles = assay: Cryo-TEM of micelles
# Description: Specimens were prepared either in an automated vitrification device (Vitrobot, FEI, The Netherlands) or in the controlled environment vitrification system (CEVS) (Bellare et al. Electron Microsc. Technique, 1988, 10; 87-111) at 24° C. and 100% relative humidity to avoid loss of volatiles. Using the latter, the solutions were incubated in the CEVS at the desired temperature for 1 h. Then, a 7 μL drop of each solution was placed on a TEM copper grid covered with a perforated carbon film (Pelco International) and blotted with filter paper to form a thin liquid film of the sample (100-200 nm thick). The thinned sample was plunged into liquid ethane at its freezing temperature (−183° C.) to form a vitrified specimen and then transferred to liquid nitrogen ([…]) for storage. Some of the vitrified specimens were examined in a Philips CM120 transmission electron microscope. (Philips, The Netherlands) operating at an accelerating voltage of 120 kV. An Oxford CT3500 (Oxford Instruments) cryo-specimen holder that maintained the specimens below −175° C. during sample transfer and observation Other specimens were examined in a Tecnai 12 G2 TEM (FEI) using a Gatan 626 cryo-holder. Specimens were studied in a low-dose imaging mode to minimize beam exposure and electron beam radiation damage.
# Images were recorded digitally on a cooled Gatan MultiScan 791 CCD camera using DigitalMicrograph 3.1 software (Gatan) in the low-dose imaging mode to minimize beam exposure and electron-beam radiation damage. Alternatively, images were recorded in the Tecnai on a high-resolution 2 k×2 k Ultrascan 1000 cooled CCD (Gatan, UK), using the Digital Micrograph 3.6 software (Gatan, UK).
# The structural characteristics of the micelles in the two pH environments were studied by cryo-TEM and SAXS (Small Angle X-ray Scattering). Cryo-TEM was used to determine the shape of the micelles and to estimate their dimensions between 4 and 40° C. This information was further used to accurately calculate the micelles' dimensions from the SAXS data, and to study how the size and shape are affected by temperature. […]
# [3] = Density measurements of β-casein solutions (density meter DMA 5000); conditions: 20 mg/ml β-casein, pH 2.6, lactic acid solution
# Description: The specific gravity of the solvents and the protein solutions was measured by a density meter DMA 5000 from Anton-Paar at various temperatures. These measurements enabled an accuracy of six digits.
# Density measurements of the β-casein solutions at pH 2.6 as a function of temperature are summarized in Table 1 Density measurements were performed using a density meter DMA 5000 from Anton-Paar, reaching an accuracy of six digits.
# [4] = Small angle X-ray scattering (SAXS) of micelles
# Description: The small angle X-ray scattering equipment consisted of a SAXSess camera (Anton-Paar, Graz, Austria) connected to an X-ray generator (Philips, PW 1730/10) operating at 40 kV and 50 mA with a sealed-tube Cu anode. A Gael mirror was used to convert the divergent polychromatic X-ray beam into a focused line-shaped beam of Cu Kα radiation (λ=0.154 nm). The 2D scattering pattern was recorded by a PI-SCX fused fiber optic taper CCD camera from Princeton Instruments, which is a division of Roper Scientific, Inc. (Trenton, N.J., USA). The used CCD detector features a 2084×2084 array with 24×24 μm pixel size (chip size: 50×50 mm). The CCD was operated at −30° C. with 10° C. water-assisted cooling to reduce the thermally generated charge. Cosmic ray correction and background subtraction were performed on the 2D image before further data processing. The 2D image was integrated into the one-dimensional scattering function within a band of 10 mm. The measurement time was 30 min for each scattering curve (6 images of 5 minutes were taken to assist the cosmic ray correction).
# The molecular weight of the scattering aggregates were calculated according to Eq. 1:
# [formula] where M is the molecular weight, dΣ(0)/dΩ (cm^−1) the forward scattering intensity at q=0, c (g/cm^3) the β-casein concentration, NA the Avogadro number, and ΔρM (cm/g) the scattering length difference per mass, given by: ΔρM=Δρ ν (2)
# The scattering length difference Δρ (cm^−2) was calculated using the known chemical composition of the protein and the solvent, and ν (cm^3/g), the specific volume of the protein in the solution that was calculated via density measurement of the solvent and the solution. The micelle aggregation number was then calculated by dividing the molecular weight of the micelles determined with Eq. 1, by the molecular weight of a single protein molecule.
# For a particle of arbitrary shape with a scattering density difference of Δρ(r), the pair distance distribution function p(r) (PDDF) is given by: p(r)=r^2Δ ρ^2(r) (3) where Δ ρ^2(r) is the convolution square of Δρ(r) averaged for all directions in space. The PDDF is related to the scattered intensity l(q) by a Fourier transformation, and it enables the determination of the overall shape and size of the scattering objects.
# [formula] λ is the wavelength of the incident radiation and θ is the angle between the scattered and incident beam. The function ƒ(r)=p(r)/r (6) is useful to identify flat plate-like particles, although it has no direct physical meaning. For lamellae, this function starts with a linearly increasing part and becomes almost flat when r is equal to the thickness of the lamella. For flat particles with a finite base area, the outer part decreases linearly because of boundary losses. The thickness of the lamella can then be read from the transition point.
# The structural characteristics of the micelles in the two pH environments were studied by cryo-TEM and SAXS (Small Angle X-ray Scattering). Cryo-TEM was used to determine the shape of the micelles and to estimate their dimensions between 4 and 40° C. This information was further used to accurately calculate the micelles' dimensions from the SAXS data, and to study how the size and shape are affected by temperature. SAXS measurements also provided the critical micelle concentration (CMC) and the micelle aggregation numbers as a function of temperature. Experiments were performed in the concentration range of 0.1-40 mg/mL protein, at low pH (between 2.1 and 2.6) in dilute lactic acid solution (6 wt %) or HCl and in aqueous solutions at pH 6.7-7.3 in absence of salts or the presence of up to 0.1M NaCl.
# SAXS measurements were used to determine the shape and dimensions of the micelles at low pH more precisely, and to evaluate the micelle molecular weight (i.e., the aggregation number). The scattering curves of 20 mg/mL β-casein in lactic acid solution (pH 2.6, IS 0.0022) at different temperatures are shown in FIG. 3a. […]
# [5] = lactic acid solution pH 2.6, 4-40 °C
# [6] = 1 wt % β-casein, empty or loaded 1:8 protein:celecoxib, pH ~7
molecule,measurement,setting,value
B1,Solid form by X-ray diffraction,[1],amorphous pattern
same,Density,[2],1.23 g/mL
same,Maximum dimension of empty micelles (cryo-TEM),Cryo-TEM of micelles; hepes buffer pH ~7,about 22 nm
same,Micelle surface length (cryo-TEM),Cryo-TEM of micelles; [5],20-25 nm
same,Micelle thickness (cryo-TEM),Cryo-TEM of micelles; [5],3-4 nm
same,Solution density,[3]; 4 °C,1.01 g/mL
same,Solution density,[3]; 16 °C,1.009 g/mL
same,Solution density,[3]; 25 °C,1.007 g/mL
same,Solution density,[3]; 40 °C,1.002 g/mL
same,Maximum micelle dimension (SAXS PDDF),"[4]; 20 mg/mL, pH 2.6, all temperatures 4-40 °C",35-40 nm
same,Rg (from Guinier apr.),[4]; [6],7.8 nm
same,"V, from a, b",[4]; [6],2410 nm^3
same,Micelle Dimensions: diameter,"[4]; pH 2.6, 4-40 °C",25 nm in
same,Micelle Shape,"[4]; pH 2.6, 4 °C",disc
same,Nagg,"[4]; pH 2.6, 4 °C",8
same,Nagg,"[4]; pH 2.6, 4 °C, concentrations of 0.5 wt % and below",approximately 2
same,Micelle Shape,"[4]; pH 2.6, 16 °C",disc
same,Nagg,"[4]; pH 2.6, 16 °C",10
same,Micelle Shape,"[4]; pH 2.6, 25 °C",disc
same,Nagg,"[4]; pH 2.6, 25 °C",11
same,CMC,"[4]; pH 2.6, 25 °C, by SAXS",0.1-0.2 wt %
same,Micelle Shape,"[4]; pH 2.6, 40 °C",disc
same,Nagg,"[4]; pH 2.6, 40 °C",9

# Source: patent publication US8871276B2, “Beta-casein assemblies for mucosal delivery of therapeutic bioactive agents” (Technion Research and Development Foundation Ltd., priority 2008, dated 2014)
